The Kd is the equilibrium constant for the complex coming apart. Low readings indicate a tighter complex, high ones a looser complex. A word on the koff: it is a measure of how fast the partners let go of each other. Higher therefore signals fast dissociation. Broadly, the kon is a measure of how fast the partners come together. A lower kon goes with slower complex formation.

The values below come from patent US20240294647A1.

The target in assay [1] is human CD16A-158F ECD fused to monomeric Fc (human) (UniProt P08637). Nature of the assay: SPR (Biacore T200), receptor captured, 1:1 model.
The target in assay [2] is human CD16A-158V ECD fused to monomeric Fc (human) (UniProt P08637). Nature of the assay: SPR (Biacore T200), receptor captured, 1:1 model. (In SPR one partner is held on a chip, and binding of the other changes the refractive index at the surface.)
Sequence of human CD16A-158V ECD fused to monomeric Fc (human) (P08637 17-208 F176V): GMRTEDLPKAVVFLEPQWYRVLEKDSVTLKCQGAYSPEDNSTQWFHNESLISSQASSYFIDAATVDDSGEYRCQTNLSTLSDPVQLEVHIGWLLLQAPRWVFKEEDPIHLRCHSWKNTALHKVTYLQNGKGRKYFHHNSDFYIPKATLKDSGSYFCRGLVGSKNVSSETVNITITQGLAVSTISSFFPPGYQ

Sequence of human CD16A-158F ECD fused to monomeric Fc (human) (P08637 17-208): as the sequence (P08637 17-208 F176V) above, with V160F counted along it

In assay [1], human IgG1 Fc (wildtype) (antibody) gave a Kd of 2720 nM, a koff of 0.0675 s⁻¹ and a kon of 24800 M⁻¹ s⁻¹. In assay [2], the dissociation constant Kd was 424 nM, the koff turned out to be 0.00995 s⁻¹ and the kon worked out at 23500 M⁻¹ s⁻¹.

In assay [2], “human IgG1 Fc (enhanced, S239D/I332E) (antibody)” had a Kd of 13.5 nM, a koff of 0.00639 s⁻¹ and an on-rate constant (kon) of 474000 M⁻¹ s⁻¹.

In assay [1], “human IgG1 Fc (silenced, L234F/L235E/D265A) (antibody)” gave an equilibrium dissociation constant (Kd) of 34700 nM, a koff of 0.71 s⁻¹ and a kon of 20400 M⁻¹ s⁻¹.
